Experimental data as given in paper PMC11323322.
Numbering of substitutions follows the chain as printed.

What was measured:
[1] = tested on: AIR-3A (RNA, G4) GGGGAGGCUGUGGUGAGGG; test: fluorescence enhancement
[2] = tested on: CIL-6A6-1 (DNA, G4, circular (5' and 3' ends ligated)) ATCTCGACTAGTCAGTGGTGGATATGGGGAGGCTGTGGTGAGGGTATGGTTGTCTCGGATTGGTTGTCTCGGAT; test: fluorescence enhancement
[3] = tested on: CIL-6A6-1A (DNA, G4, circular) ATCTCGACTAGTCAGTGGTGGATATGTGCACACTGTTGTGAACGTATGGTTGTCTCGGATTGGTTGTCTCGGAT; test: fluorescence enhancement
[4] = target: T1, IL-6 (interleukin-6) (human, UniProt P05231 30-212); test: pull-down, real-time PCR; 1x PBSMT pH 7.2: 137 mM NaCl, 2.68 mM KCl, 8.1 mM Na2HPO4, 1.76 mM KH2PO4, 1 mM MgCl2, 0.025% Tween-20; pull-down 1 h (room temperature in SELEX); MST at 25 C; details: protein: commercial; circular
[5] = target: T2, sIL-6R (soluble IL-6 receptor alpha) (human, UniProt P08887 20-355); test: as above; details: protein: commercial; circular
[6] = target: T1, IL-6 (interleukin-6); test: pull-down, real-time PCR; affinity largely retained; 1x PBSMT pH 7.2: 137 mM NaCl, 2.68 mM KCl, 8.1 mM Na2HPO4, 1.76 mM KH2PO4, 1 mM MgCl2, 0.025% Tween-20; pull-down 1 h (room temperature in SELEX); MST at 25 C; details: protein: commercial; circular
[7] = target: T1, IL-6 (interleukin-6); test: pull-down, real-time PCR; fully functional; 1x PBSMT pH 7.2: 137 mM NaCl, 2.68 mM KCl, 8.1 mM Na2HPO4, 1.76 mM KH2PO4, 1 mM MgCl2, 0.025% Tween-20; pull-down 1 h (room temperature in SELEX); MST at 25 C; details: protein: commercial; circular
[8] = target: T2, sIL-6R (soluble IL-6 receptor alpha); test: as above; details: protein: commercial; circular
[9] = target: T2, sIL-6R (soluble IL-6 receptor alpha); test: MST; 1x PBSMT pH 7.2: 137 mM NaCl, 2.68 mM KCl, 8.1 mM Na2HPO4, 1.76 mM KH2PO4, 1 mM MgCl2, 0.025% Tween-20; pull-down 1 h (room temperature in SELEX); MST at 25 C; details: protein: commercial
[10] = target: T1, IL-6 (interleukin-6); test: pull-down, real-time PCR; smaller Kd than CIL-6A; value only in figure; 1x PBSMT pH 7.2: 137 mM NaCl, 2.68 mM KCl, 8.1 mM Na2HPO4, 1.76 mM KH2PO4, 1 mM MgCl2, 0.025% Tween-20; pull-down 1 h (room temperature in SELEX); MST at 25 C; details: protein: commercial; circular; two putative antiparallel G4 motifs
[11] = target: T2, sIL-6R (soluble IL-6 receptor alpha); test: as above; details: protein: commercial; circular; two putative antiparallel G4 motifs
[12] = target: T1, IL-6 (interleukin-6); test: MST; 1x PBSMT pH 7.2: 137 mM NaCl, 2.68 mM KCl, 8.1 mM Na2HPO4, 1.76 mM KH2PO4, 1 mM MgCl2, 0.025% Tween-20; pull-down 1 h (room temperature in SELEX); MST at 25 C; details: protein: commercial; linear
[13] = order of intensities similar to ThT

T2 sequence (P08887 20-355): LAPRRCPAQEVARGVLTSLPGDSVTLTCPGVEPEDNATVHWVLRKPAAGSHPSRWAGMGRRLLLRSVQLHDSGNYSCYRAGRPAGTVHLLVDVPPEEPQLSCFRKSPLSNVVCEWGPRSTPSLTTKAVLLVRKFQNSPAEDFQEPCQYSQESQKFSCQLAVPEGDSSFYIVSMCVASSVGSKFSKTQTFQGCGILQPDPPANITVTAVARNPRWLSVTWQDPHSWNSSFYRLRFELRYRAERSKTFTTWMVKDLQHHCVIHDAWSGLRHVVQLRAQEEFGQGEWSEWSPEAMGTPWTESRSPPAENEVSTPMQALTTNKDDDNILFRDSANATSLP
T1 sequence (P05231 30-212): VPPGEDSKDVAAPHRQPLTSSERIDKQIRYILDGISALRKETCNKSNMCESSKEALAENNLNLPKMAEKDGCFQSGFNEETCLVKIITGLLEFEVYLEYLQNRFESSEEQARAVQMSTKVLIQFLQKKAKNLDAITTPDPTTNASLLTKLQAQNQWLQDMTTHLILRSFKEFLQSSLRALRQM

CCc1c(C)c2cc3nc(cc4nc(cc5c(CC)c(C)c(cc1[nH]2)n5C)C(C)=C4CCC(=O)O)C(CCC(=O)O)=C3C
binding [1, 13]: yes
binding ([2]; fluorescence decreased by added 50 and 100 mM Li+): yes
binding [3, 13]: yes

Cc1ccc2c(c1)sc(-c1ccc(N(C)C)cc1)[n+]2C
binding ([1]; excitation 425 nm, second highest intensity, with or above CIL-6A6-1A): yes
binding ([2]; excitation 425 nm, highest intensity of the five sequences): yes
binding ([3]; excitation 425 nm, intensity below CIL-6A6-1): yes

B1: CIL-6A (ssDNA)
DNA: ATCTCGACTAGTCAGTGGTGGATACCGGATGGGGAGGCTGTGGTGAGGGTATGGTTGTCTCGGATTGGTTGTCTCGGAT
modifications: circular (5'-3' ligated)
Kd [4]: 8.5 nM
Kd [5]: 6.9 nM

B2: CIL-6A4-1 (ssDNA)
DNA: ATCTCGACTAGTCAGGGATACCGGATGGGGAGGCTGTGGTGAGGGTATGGTTGTCTCGGATTGGTTGTCTCGGAT
modifications: circular
binding result [4]: binds
binding result [5]: binds

B3: CIL-6A46 (ssDNA)
DNA: ATCTCGACTAGTCAGGGATATGGGGAGGCTGTGGTGAGGGTATGGTTGTCTCGGATTGGTTGTCTCGGAT
modifications: circular
binding result [4]: binds
binding result [5]: binds

B4: CIL-6A-R (ssDNA)
DNA: ATCTCGACTATTTTTTTTTTTTTTTTTTTTGGGGAGGCTGTGGTGAGGGTTTTTTTTTTTTTTTTTTTTTGTCTCGGAT
modifications: circular
binding result [4]: no binding

B5: CIL-6A-C (ssDNA)
DNA: ATCTCGACTAGTCAGTGGTGGATACCGGATTTTTTTTTTTTTTTTTTTTTATGGTTGTCTCGGATTGGTTGTCTCGGAT
modifications: circular
binding result [5]: no binding
binding result [6]: binds

B6: CIL-6A4 (ssDNA)
DNA: B1 DNA with G17T, G18T
modifications: circular
binding result [7]: binds
binding result [8]: binds

B7: AIR-3A (structured_RNA)
RNA: GGGGAGGCUGUGGUGAGGG
Kd ([9]; G4, 2-tiered): 67.5 nM

B8: CIL-6A6 (ssDNA)
DNA: B1 DNA with C25T, C26T, G27T, G28T, A29T
modifications: circular
binding result [7]: binds
binding result [8]: binds

B9: CIL-6C (ssDNA)
DNA: ATCTCGACTAGTCATATGGTGTAGATCCTTGGGGAGGCTGTGGTGAGGGGGTTGAAGGTAGTTGCTCGTTGTCTCGGAT
modifications: circular
binding result [4]: binds
binding result [5]: binds

B10: CIL-6B (ssDNA)
DNA: ATCTCGACTAGTCAGGTGTTGTAATGGTAAGGGGAGGCTGTGGTGAGGGTTGGTTGTCACGGATAGTTGTGTCTCGGAT
modifications: circular
binding result [5]: binds

B11: CIL-6D (ssDNA)
DNA: ATCTCGACTAGTTAGACGCTACGTGCGGATGGGGAGGCTGTGGTGAGGGTTGGTGTTCTCGGATGATGGTGTCTCGGAT
modifications: circular
binding result [5]: binds

B12: CIL-6A6-1 (structured_DNA)
DNA: ATCTCGACTAGTCAGTGGTGGATATGGGGAGGCTGTGGTGAGGGTATGGTTGTCTCGGATTGGTTGTCTCGGAT
modifications: circular
Kd [10]: < 8.5 nM
Kd [11]: < 6.9 nM

B13: IL-6A6-1 (linear form of CIL-6A6-1) (ssDNA)
DNA: B12 DNA
modifications: linear
binding result [12]: no binding
binding result ([9]; linear): no binding
